Results reported in paper PMC11869295, “Molecular Principles of Proton-Coupled Quinone Reduction in the Membrane-Bound Superoxide Oxidase” (Journal of the American Chemical Society, 2025).

Legend:
Assay in all cases: WST-1 competition assay, decrease of formazan formation rate on SOO addition
[1] = biological target: T1, superoxide oxidase (SOO); CybB (Escherichia coli, UniProt P0ABE5, H158A); assay type: biochemical; conditions: apparent Km; forward reaction, superoxide from xanthine oxidase/hypoxanthine, bo3 oxidase regenerates quinone, 50 nM SOO, 100 mM sodium phosphate pH 8, 0.05% DDM; range printed jointly for H158A and H
T1 construct: full length with C-terminal 8xHis tag, expressed in E. coli BL21(DE3) pLysS, membrane protein purified in detergent (OGNG, assayed in DDM), two b hemes

[2] = biological target: T2, superoxide oxidase (SOO); CybB (Escherichia coli, UniProt P0ABE5, H158F); assay type: biochemical; conditions: apparent Km; forward reaction, superoxide from xanthine oxidase/hypoxanthine, bo3 oxidase regenerates quinone, 50 nM SOO, 100 mM sodium phosphate pH 8, 0.05% DDM; range printed jointly for H158A and H
T2 construct: full length with C-terminal 8xHis tag, expressed in E. coli BL21(DE3) pLysS, membrane protein purified in detergent (OGNG, assayed in DDM), two b hemes

[3] = substrate: COC1=C(OC)C(=O)C(C/C=C(\C)CCC=C(C)C)=C(C)C1=O; assay type: biochemical, Escherichia coli; conditions: apparent Km, forward reaction, superoxide from xanthine oxidase/hypoxanthine, bo3 oxidase regenerates quinone, 50 nM SOO, 100 mM sodium phosphate pH 8, 0.05% DDM

T1 sequence (P0ABE5 whole entry H158A): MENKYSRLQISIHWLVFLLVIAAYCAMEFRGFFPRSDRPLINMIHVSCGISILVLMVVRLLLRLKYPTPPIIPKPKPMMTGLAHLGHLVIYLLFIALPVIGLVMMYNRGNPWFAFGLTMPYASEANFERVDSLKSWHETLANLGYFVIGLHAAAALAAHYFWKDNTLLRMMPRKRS
T2 sequence (P0ABE5 whole entry H158F): as the sequence (P0ABE5 whole entry H158A) above, with A158F counted along it

Row | Km [1] | Km [2] | Molecule | Km [3]
1 | 8 to 13 µM | 8 to 13 µM | COC1=C(OC)C(=O)C(C/C=C(\C)CCC=C(C)C)=C(C)C1=O [ubiquinone Q2] | –
2 | – | – | superoxide oxidase (SOO); CybB (Escherichia coli K-12) (protein, full length with C-terminal 8xHis tag, expressed in E. coli BL21(DE3) pLysS, membrane protein purified in detergent (OGNG, assayed in DDM), two b hemes) MENKYSRLQISIHWLVFLLVIAAYCAMEFRGFFPRSDRPLINMIHVSCGISILVLMVVRLLLRLKYPTPPIIPKPKPMMTGLAHLGHLVIYLLFIALPVIGLVMMYNRGNPWFAFGLTMPYASEANFERVDSLKSWHETLANLGYFVIGLHAAAALAHHYFWKDNTLLRMMPRKRS | 0.4 µM
3 | – | – | superoxide oxidase (SOO); CybB (Escherichia coli K-12; D164A) (protein, full length with C-terminal 8xHis tag, expressed in E. coli BL21(DE3) pLysS, membrane protein purified in detergent (OGNG, assayed in DDM), two b hemes) MENKYSRLQISIHWLVFLLVIAAYCAMEFRGFFPRSDRPLINMIHVSCGISILVLMVVRLLLRLKYPTPPIIPKPKPMMTGLAHLGHLVIYLLFIALPVIGLVMMYNRGNPWFAFGLTMPYASEANFERVDSLKSWHETLANLGYFVIGLHAAAALAHHYFWKANTLLRMMPRKRS | 5 µM
4 | – | – | superoxide oxidase (SOO); CybB (Escherichia coli K-12; D164E) (protein, full length with C-terminal 8xHis tag, expressed in E. coli BL21(DE3) pLysS, membrane protein purified in detergent (OGNG, assayed in DDM), two b hemes) MENKYSRLQISIHWLVFLLVIAAYCAMEFRGFFPRSDRPLINMIHVSCGISILVLMVVRLLLRLKYPTPPIIPKPKPMMTGLAHLGHLVIYLLFIALPVIGLVMMYNRGNPWFAFGLTMPYASEANFERVDSLKSWHETLANLGYFVIGLHAAAALAHHYFWKENTLLRMMPRKRS | 3 µM
